The results in this text go back to publication PMC9399094.

Series [1] has as its target S.c. Mcm2-7 complex with S6- and 3xFlag-tagged Mcm3, fluorescently labeled (S. cerevisiae) (UniProt P29469). The series can be described thus: single-molecule photobleaching step counting (optical tweezers with confocal microscopy); LD650-MCM on nucleosome-free λ_(ARS1) DNA with unlabeled ORC, Cdc6, Cdt1; oxygen scavenging system omitted; labeling efficiency of MCM ~60%; two hexamers to a double hexamer on DNA.

Series [2] has as its system ORC (Orc1-6);Cdc6 (Saccharomyces cerevisiae (overexpressed in strain OY001);Saccharomyces cerevisiae). The series can be described thus: single-molecule fluorescence, optical tweezers. The following applies: biotinylated ends, H2A K120C, Single-molecule optical tweezers with confocal fluorescence, ATP present, 2 nM ORC, 5 nM Cdc6, 10 nM MCM, high-salt wash 0.5 M NaCl, buffer, pH and temperature ….

Series [3] addresses S.c. nucleosome: recombinant S. cerevisiae histone octamer (H2A K120C, fluorescently labeled) assembled on λ_(ARS1) DNA (S. cerevisiae) (UniProt P04911). The series can be described thus: single-molecule fluorescence colocalisation (dual-trap optical tweezers with confocal microscopy); nucleosomes sparsely assembled on λ_(ARS1) DNA tethered between streptavidin beads; 2 nM Cy3- or LD650-ORC and 5 nM Cdc6 in solution; 25 mM Tris-OAc pH 7.5, 50 mM potassium glutamate, 10 mM Mg(OAc)2, 2.5 mM ATP; room temperature.

The subject of series [4] is ORC (Orc1-6);MCM (Mcm2-7);Cdc6;Cdt1 (Saccharomyces cerevisiae (overexpressed in strain OY001);Saccharomyces cerevisiae (overexpressed in strain OY001);Saccharomyces cerevisiae;Saccharomyces cerevisiae). Briefly: single-molecule fluorescence, optical tweezers. The following applies: Single-molecule optical tweezers with confocal fluorescence, ATP present, 2 nM ORC, 5 nM Cdc6, 10 nM MCM, high-salt wash 0.5 M NaCl, buffer, pH and temperature ….

As usually defined, the stoichiometry N is the number of molecules, sites or subunits per partner or assembly.

In series [1], “S.c. Mcm2-7 complex with S6- and 3xFlag-tagged Mcm3, fluorescently labeled, P29469 1-868; P24279 1-971; P30665 1-933; P29496 1-775; P53091 1-1017; P38132 1-845” displayed a fraction of MCM with two-step photobleaching of 36% and a stoichiometry N of 2.

With “S.c. nucleosomes on λARS1 DNA (all positions)”, the binding signal (% of nucleosomes with stably bound ORC) in series [2] (S. cerevisiae octamer) is greater than 90.

Regarding “S.c. origin recognition complex (Orc1-6) with S6-3xFlag-Orc1, fluorescently labeled (from UniProt P54784 1-914; P32833 1-620; P54790 1-616; P54791 1-529; P50874 1-479; P38826 1-435)”, the fraction of nucleosomes with a stably bound ORC at 2 nM ORC in series [3] is greater than 90%.

As for “X.l. nucleosomes on λARS1 DNA (all positions)”, in series [2] (Xenopus laevis octamer), the binding signal (% of nucleosomes with stably bound ORC) is greater than 90.

With λARS1 DNA, ARS1 site, the binding signal in series [4] (0.5 M NaCl wash, biotinylated ends (biotin-11-dUTP, biotin-14-dCTP fill-in), scale: % of MCM loaded) amounted to 62.

Turning to λARS1 DNA, non-ARS1 positions, the binding signal was 86 in series [4] (10 nM MCM, 5 nM Cdc6, biotinylated ends, scale: % of stably bound MCM located at non-ARS1 positions) and 25 in series [4] (0.5 M NaCl wash, biotinylated ends, scale: % of MCM loaded).
